For this assay, the target named is Hsp70-mCherry (human, cytoplasmic, heat-inducible hsp70 (hsp72) with a C-terminal mCherry tag) (human) (UniProt P0DMV8). Briefly: FRET or BRET; live U2OS cells co-expressing the GFP-tagged PGK (donor) and the mCherry-tagged partner (acceptor); donor/acceptor (D/A) fluorescence ratio per cell under steady illumination, temperature titration 20°C-45°C, fitted by a two-state model. A general note: Bioluminescence resonance energy transfer reports proximity on the nanometre scale.
Chain of UniProt P0DMV8 (P0DMV8 whole entry): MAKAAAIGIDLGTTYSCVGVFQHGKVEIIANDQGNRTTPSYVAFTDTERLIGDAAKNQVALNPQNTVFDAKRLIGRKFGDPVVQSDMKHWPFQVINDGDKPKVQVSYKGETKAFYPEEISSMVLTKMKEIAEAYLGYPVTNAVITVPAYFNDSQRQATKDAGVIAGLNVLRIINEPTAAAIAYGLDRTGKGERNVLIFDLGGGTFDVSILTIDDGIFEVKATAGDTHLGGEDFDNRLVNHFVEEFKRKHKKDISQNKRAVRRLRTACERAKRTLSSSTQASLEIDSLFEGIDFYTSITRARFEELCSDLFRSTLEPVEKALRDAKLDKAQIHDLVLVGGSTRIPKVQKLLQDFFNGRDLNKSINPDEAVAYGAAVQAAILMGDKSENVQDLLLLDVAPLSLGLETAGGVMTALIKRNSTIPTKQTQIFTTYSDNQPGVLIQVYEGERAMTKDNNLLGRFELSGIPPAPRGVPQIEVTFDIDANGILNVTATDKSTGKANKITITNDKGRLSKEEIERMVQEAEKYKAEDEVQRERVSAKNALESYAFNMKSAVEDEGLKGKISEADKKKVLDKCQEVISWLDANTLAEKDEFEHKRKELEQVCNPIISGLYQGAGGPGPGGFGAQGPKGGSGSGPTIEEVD

“ltPGK-GFP (low melting temperature mutant of phosphoglycerate kinase, Y122W/W308F/W333F, with an N-terminal GFP tag) (enzyme)”: the temperature midpoint of binding was 39 °C and the temperature of binding onset was 35 °C.

For the origin of these results see publication PMC4249841.
